# Numbering of substitutions follows the chain as printed.
# B1: P02_E11 scFv-Fc fusion (scFv, V domains shown)
# VH: QVQLVESGGGLVQAGGSLRLSCAASRRSSRSWAMHWVRQAPGKGLEWVAVISYDGRLKYYADSVKGRFTISRDNAEYLVYLQMNSLRAEDTAVYYCAAEASTDNGLDYWGQGTLVTVSS
# VL: DIQMTQSPSSLSASVGDRVTITCRASQTISRHLNWYQQKPGKAPKLLIYSASSLASGVPSRFSGSGSGTDFTLTISSLQPEDFATYYCQQSHSAGTFGQGTKVEIK
# notes: Tested as scFv-Fc fusion
# B2: P03_A01 scFv-Fc fusion (scFv, V domains shown)
# VH: QVQLVESGGGLVQAGGSLRLSCAASRRSSRSWAMHWVRQAPGKGLEWVAVISYDGRLKYYADSVKGRFTISRDNAEYLVYLQMNSLRAEDTAVYYCAAETGSVGLDYWGQGTLVTVSS
# VL: B1 VL with T28G, R31T, H32Y, S50G, S52T, A55E, S91G, H92Y, A94Q
# notes: Tested as scFv-Fc fusion
# B3: P02_H01 scFv-Fc fusion (scFv, V domains shown)
# VH: B1 VH with E99G, A100S, S101G, T102G, D103G, N104D, Y108V
# VL: B1 VL with R31S, H32Y, A51S, S53T, A55Q, S56G, H92Y, A94S
# notes: Tested as scFv-Fc fusion
# Target: T1, human CD33 antigen (human, UniProt P20138 18-259, limits assumed)
# T1 construct: whole entry named; also called Siglec-3
# Assay: SPR (Biacore T200), 37 C, scFv-Fc, 10 uM MTX; KD estimated, rate constants not determined
# Description: (§1) All binding kinetics analysis was performed on label-free Biacore surface plasmon biosensors (Biacore T200™ from GE Life Sciences) at 37° C. in 10 mM Hepes pH 7.4, 150 mM NaCl, 0.05% Tween-20 (HBST+), with or without 10 µM MTX. The Biacore data were processed in Biacore T200 Evaluation Software, and the data were double-referenced (Myszka, 1999, J Mol Recognit 12(5):279-284) and fit globally to a simple Langmuir with mass transport model to determine the equilibrium dissociation constant, KD, from the ratio of the kinetic rate constants (KD = koff/kₒₙ). In some cases the binding of antigen was very low (or not detectable) in the presence of 10 µM MTX and as a result kinetic rate constants could not be accurately determined. In these cases, a KD (or KD limit) was estimated based on the binding response at the highest analyte concentration tested or based on the typical limit of detection for a Biacore T200.
# “*”: For interactions where kₒₙ and koff are reported, the KD was calculated using koff/kₒₙ.
# T1 sequence (P20138 18-259 limits assumed): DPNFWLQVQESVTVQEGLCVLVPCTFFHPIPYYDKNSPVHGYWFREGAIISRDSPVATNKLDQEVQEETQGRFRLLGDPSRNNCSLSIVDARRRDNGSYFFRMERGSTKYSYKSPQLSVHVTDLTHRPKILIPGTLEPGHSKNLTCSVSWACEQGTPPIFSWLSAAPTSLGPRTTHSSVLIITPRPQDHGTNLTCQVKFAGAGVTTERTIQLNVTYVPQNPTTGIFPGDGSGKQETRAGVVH
row,Kd,Binder
1,14.6 µM,B1
2,4.27 µM,B2
3,4.34 µM,B3

# Target: T1, human CD33 antigen
# Assay: SPR (Biacore T200), 37 C; KD at 10 uM MTX / KD at 0 uM MTX
# Description: as §1
row,Ratio: KD with MTX / KD without MTX,Binder
1,221,B1
2,37,B2
3,3.3,B3

# Target: T1, human CD33 antigen
# Assay: SPR (Biacore T200), 37 C, scFv-Fc, 0 uM MTX
# Description: as §1
Kd,koff,kon,Binder
66 nM,0.0038 s⁻¹,58000 M⁻¹ s⁻¹,B1
115 nM,0.0057 s⁻¹,50000 M⁻¹ s⁻¹,B2
1320 nM,0.037 s⁻¹,28000 M⁻¹ s⁻¹,B3

# — US20230192839A1 (published 2023)
